Measurements reported in article PMC6098011 (2018).
Primed or numbered codes have the meaning given here. No end group written: not given here. FITC′ = fluorescein isothiocyanate label

B1: MBP-fused PB1-ZZ of p62 (residues 1-181) wild type (domain or fragment)
chain: not shown

Legend:
FEEED = molecular target: T1, FEEED (Homo sapiens, not fully specified); assay: FP; pH 8.0
T1 chain: H-FEEED

[1] = molecular target: B1; assay: FP; pH 8.0
[2] = molecular target: Flag-ZZ (ZZ-domain of p62 with the flag-tag) (human); assay: FP; pH 6.0
Sequence of Flag-ZZ (ZZ-domain of p62 with the flag-tag) (human) (chain, as listed by the source): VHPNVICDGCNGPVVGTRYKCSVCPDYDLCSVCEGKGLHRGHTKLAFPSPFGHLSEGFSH

B1
Kd (FEEED): 169 µM

B2: FITC-labeled N-degron peptide with lysine at the primary position (peptide)
chain: KEEEDK
modifications: also: FITC-labeled, site not given here
Kd [1]: 113 µM

B3: FITC-labeled N-degron peptide with tryptophan at the primary position (peptide)
chain: WEEEDK
modifications: also: FITC-labeled (site not given here)
Kd [1]: 82 µM

B4: FITC-labeled N-degron peptide with tyrosine at the primary position (peptide)
chain: YEEEDK
modifications: also: FITC-labeled (site not given here)
Kd [1]: 68 µM

B5: R-BiP peptide (REEEDK–FITC) (peptide)
peptide: REEEDK-{FITC′}
Kd [2]: > 400 µM
